Measurements reported in the Immune Epitope Database (IEDB).
pKd: −log10 of the molar value.

Assays:
Assay in all cases: IEDB peptide-MHC binding, purified MHC/competitive/radioactivity; filed as Kd, often an IC50 or EC50 that approximates it; ≥ and ≤ were set here for values at or beyond the usual limits of such assays
[1] = target: HLA-A*03:01
[2] = target: HLA-A*11:01
[3] = target: HLA-A*31:01
[4] = target: HLA-A*33:01
[5] = target: HLA-A*68:01
[6] = source organism: SARS coronavirus Tor2
[7] = source organism: Dengue virus 1 Brazil/97-11/1997
[8] = source organism: Dengue virus 3 Singapore/8120/1995
[9] = source organism: Dengue virus 2 Jamaica/1409/1983
[10] = source organism: Vaccinia virus WR
[11] = source organism: Dengue virus 4 Philippines/H241/1956
[12] = source organism: Dengue virus 3 Martinique/1243/1999

Row | Sequence | pKd [1, 10] | pKd [2, 10] | pKd [3, 10] | pKd [4, 10] | pKd [5, 10] | other results
1 | AINSVPWSK |  |  |  |  |  | pKd [1, 6]: 7.89; pKd [2, 6]: 8.73; pKd [3, 6]: 5.93; pKd [4, 6]: 4.97; pKd [5, 6]: 5.75
2 | ALFEPEREK |  |  |  |  |  | pKd [1, 7]: 7.23
3 | ALILAYSNK |  |  |  |  |  | pKd [1, 6]: 7.31; pKd [2, 6]: 7.71; pKd [3, 6]: 5.42; pKd [4, 6]: ≤ 4.36; pKd [5, 6]: 5.34
4 | AMCLNTFVLK |  |  |  |  |  | pKd [1, 8]: 8.03; pKd [2, 8]: 7.63
5 | AVAPSMTMR |  |  |  |  |  | pKd [2, 9]: 7.48
6 | AVLSAATETY | 6.63 | 6.57 | 4.98 | 5.06 | 5.40 | 
7 | CTDESRDRK | 5.22 | 6.66 | ≤ 4.26 | ≤ 4.11 | 6.77 | 
8 | DIKLDAVLDR | ≤ 4.38 | ≤ 4.16 | 4.75 | 6.81 | 6.33 | 
9 | DSLLITNTK | 5.57 | 6.18 | 4.73 | 8.29 | 7.43 | 
10 | DVKASMLEKY | ≤ 4.61 | 5.31 | ≤ 4.44 | 4.78 | 6.25 | 
11 | EDTMTYKCPR |  |  |  |  |  | pKd [4, 7]: 6.09
12 | EIIGGNDMY | 5.27 | ≤ 4.45 | ≤ 4.11 | ≤ 4.11 | 7.26 | 
13 | ELALTDVEK | 5.81 | 6.29 | 5.01 | 5.24 | 8.94 | 
14 | ELVTRKCPQK | 5.13 | 6.29 | ≤ 4.15 | ≤ 4.49 | 5.85 | 
15 | EMYPRHRYSK | 6.90 | 5.95 | 5.94 | 6.49 | 7.56 | 
16 | ETFKIDAVR | ≤ 4.54 | 5.56 | 6.97 | 7.68 | 8.79 | 
17 | EVFGSTGDY | 5.50 | 7.88 | ≤ 4.11 | ≤ 4.11 | 7.85 | 
18 | EVHWNYKER |  |  |  |  |  | pKd [5, 11]: 7.82
19 | EYRLRGEAR |  |  |  |  |  | pKd [4, 9]: 7.35
20 | FLKSGAVVK | 7.87 | 6.46 | 5.32 | 4.71 | 7.36 | 
21 | FMEMFFDYNK | 6.26 | 7.06 | 6.14 | 5.65 | 6.64 | 
22 | FSNTIQSYK | 7.59 | 7.96 | 7.11 | 5.70 | 8.23 | 
23 | FSTSAADIK | 5.66 | 6.65 | ≤ 4.45 | ≤ 4.54 | 8.59 | 

Row | Sequence | pKd [1, 10] | pKd [2, 10] | pKd [3, 10] | pKd [4, 10] | pKd [5, 10] | other results
24 | FVDINRNNK | 6.55 | 7.29 | 5.64 | ≤ 4.33 | 7.60 | 
25 | GADPNACDK | ≤ 4.42 | 5.20 | 5.42 | 5.08 | 7.04 | 
26 | GAGLAFSLMK |  |  |  |  |  | pKd [2, 7]: 7.03
27 | GFFLRKLTSR |  |  |  |  |  | pKd [3, 12]: 8.87
28 | GISLGLILLK |  |  |  |  |  | pKd [1, 11]: 7.78; pKd [2, 11]: 7.10
29 | GLLATNNVFR |  |  |  |  |  | pKd [1, 6]: 6.37; pKd [2, 6]: 6.09; pKd [3, 6]: 6.31; pKd [4, 6]: 5.23; pKd [5, 6]: 6.10
30 | GLLNGQGPMK |  |  |  |  |  | pKd [1, 12]: 8.02
31 | GMSYSMCTGK |  |  |  |  |  | pKd [1, 9]: 7.51; pKd [2, 9]: 6.36
32 | GSFCTQLNR |  |  |  |  |  | pKd [1, 6]: 5.98; pKd [2, 6]: 7.12; pKd [3, 6]: 7.29; pKd [4, 6]: ≤ 4.48; pKd [5, 6]: 6.64
33 | HSGVDVFYK |  |  |  |  |  | pKd [2, 11]: 6.77
34 | IFSLKDTLKR |  |  |  |  |  | pKd [4, 12]: 6.49
35 | IFVDTMSIY | 4.74 | 6.04 | 5.17 | ≤ 4.54 | 6.05 | 
36 | IIKSDHEFVK | 5.37 | 6.35 | 4.80 | ≤ 4.15 | 5.74 | 
37 | IMDLHPGAGK |  |  |  |  |  | pKd [1, 9]: 7.39
38 | ISFKSINKVY | 5.60 | 4.91 | 5.00 | ≤ 4.20 | 5.18 | 
39 | ISKIYTLIYR | 6.16 | 6.65 | 9.47 | 9.34 | 8.30 | 
40 | ISQGAGWSLK |  |  |  |  |  | pKd [1, 9]: 6.70; pKd [2, 9]: 6.67
41 | ISYDPKFEK |  |  |  |  |  | pKd [1, 11]: 6.94; pKd [2, 11]: 7.00
42 | ITFLRPVLK | 8.34 | 8.19 | 8.12 | 7.07 | 8.94 | 
43 | ITLKIIETY | ≤ 4.11 | ≤ 4.11 | 6.12 | ≤ 4.11 | ≤ 4.11 | 
44 | IVTSLAIKNY | 5.95 | 7.29 | 5.05 | 5.25 | 5.85 | 
45 | KAERVIDPR |  |  |  |  |  | pKd [3, 9]: 7.25
